PMC7049697

What was measured:
Rap1-DBD = biological target: T1, Rap1-DBD (Saccharomyces cerevisiae, UniProt P11938 358-601); assay: EMSA
T1 sequence: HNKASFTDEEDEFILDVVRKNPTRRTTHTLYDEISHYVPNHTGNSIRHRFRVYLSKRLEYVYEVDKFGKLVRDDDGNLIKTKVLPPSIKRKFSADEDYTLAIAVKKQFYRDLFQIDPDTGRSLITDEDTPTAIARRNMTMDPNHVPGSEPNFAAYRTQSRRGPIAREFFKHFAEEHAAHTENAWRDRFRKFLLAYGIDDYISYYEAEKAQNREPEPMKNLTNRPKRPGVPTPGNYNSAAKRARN

Rap1-DBD P520L = biological target: T2, Rap1-DBD P520L (Saccharomyces cerevisiae, UniProt P11938 358-601, P520L); assay: EMSA
T2 sequence: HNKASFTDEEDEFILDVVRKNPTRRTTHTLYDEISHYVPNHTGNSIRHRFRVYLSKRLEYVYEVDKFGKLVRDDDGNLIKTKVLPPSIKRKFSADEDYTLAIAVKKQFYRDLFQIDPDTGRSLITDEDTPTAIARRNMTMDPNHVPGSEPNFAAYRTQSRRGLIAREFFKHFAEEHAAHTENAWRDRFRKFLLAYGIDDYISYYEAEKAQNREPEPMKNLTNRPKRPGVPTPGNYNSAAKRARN

B1: 21 bp telomeric Rap1 site dsDNA (dsDNA)
DNA 1: CCGCACACCCACACACCAGTG
DNA 2: CACTGGTGTGTGGGTGTGCGG
What does the source list for B1?
binding result (Rap1-DBD): binds; binding result (Rap1-DBD P520L): binds
